Measurements published in patent US11739161B2, “Methods for treating and diagnosing prostate cancer” (Tufts Medical Center, Inc., priority 2017, dated 2023).

Key:
PC-3 cells = assay: RNASE4 knockdown, colony formation in soft agar; assay type: cell-based, human; settings: PC-3, exogenous RNASE4 1 μg/ml, 14 days
Excerpt: FIGS. 13A-D. RNASE4 knockdown reduces prostate cancer cell proliferation in vitro and colony formation in soft agar. (A) Immunoblot analysis of RNASE4 in PC-3 cells stably transfected with shControl, shRNASE4-1, and shRNASE4-2. (B) qRT-PCR analysis of RNASE4 mRNA normalized to GAPDH in PC-3 cells stably transfected with shControl, shRNASE4-1, and shRNASE4-2. (C) Effect of RNASE4 knockdown on cell proliferation. Cell numbers were counted by a Coulter counter. Exogenous RNASE4, when presented, was at the concentration of 1 μg/ml. Data shown are from representative experiment (in triplicates) of 3 independent repeats. (D) Effects of RNASE4 knockdown on colonies formation and growth of PC-3 cells in soft agar. The same numbers of control and RNASE4 knockdown cells were seeded in soft agar, and grown in the absence or presence of 1 μg/ml of RNASE4 for 14 days. Colonies were counted and size measured on a Nikon Eclipse ti microscope. Left panels, representative images of colonies; scale bars=100 μm. Right panels, quantification of colony numbers and sizes. Data shown are means±SEM from five randomly selected fields per dish from a representative experiment. *P≤0.05, **P≤0.01, and ***P≤0.001, by two-tailed Student's t test.
Lentiviral mediated shRNA system (pGIPZ, Open Biosystems) was used to generate control and RNASE4 knockdown cell lines. […]

[1] = tested on: AKT and S6 phosphorylation in DU145 cells; assay: RNASE4-induced phosphorylation of AKT and S6 (immunoblot); assay type: cell-based, human; settings: serum-starved DU145, RNASE4 1 μg/ml, time course
Protocol: FIGS. 10A-E. RNASE4 induces prostate cancer cell proliferation and phosphorylation of AKT and S6. (A and B) Exogenous RNASE4 (1 μg/ml) stimulates cell proliferation (A) and cell cycle progression (B) of DU145 cells cultured in the presence of 2% FBS. Cell numbers were determined by MTT assay. Cell cycle status was determined by flow cytometry after 24 hour incubation with RNASE4. (C) Time course of AKT and S6 phosphorylation of serum-starved DU145 cells by RNASE4 (1 μg/ml). Left panels, immunoblots; right panels, quantification of p-AKT and p-S6 normalized to total AKT and S6 by Image J analysis. […] Cells were pre-incubated with the inhibitors at the indicated concentrations for 1 hour prior to be stimulated by 1 μg/ml of RNASE4 for 5 minutes. Top panels, immunoblots; bottom panels, Image J quantification of p-AKT and p-S6 normalized to total AKT and S6. (E) Effect of AKT inhibitor MK-2206, PI3K inhibitors Wortmannin and LY294002, and mTOR inhibitor Rapamycin on RNASE4-induced cell proliferation. DU145 cells were serum-starved overnight, incubated with the inhibitors for 1 hour, and then treated with RNASE4 (1 μg/ml) for three days. Cell numbers were determined by MTT assay. Data shown are from a representative experiments in triplicates of 3 independent repeats. Error bars indicate SEM. **P≤0.01, by unpaired two-tailed Student's t test.
FIGS. 12A-F. RNASE4 induces AXL phosphorylation. (A) Human phospho-receptor tyrosine kinase (RTK) antibody array analysis. Serum-starved DU145 cells were treated with or without 1 μg/ml of RNASE4 for 5 minutes. A total of 1.5 mg cell lysate protein was blotted on each array membrane. […] (B) Immunoblot analysis of RNASE4-stimulated AXL phosphorylation. DU145 cells were serum-starved overnight and treated with 1 μg/ml of RNASE4 for the indicated time. Cell lysates were analyzed by antibodies against total AXL and phospho-AXL, with β-actin as the loading control. Left panels, immunoblots; right panel, Image J quantification of p-AXL normalized to total AXL. (C) Immunoblot analysis of phospho-AXL in response to stimulation by ANG, RNase A, and RNASE4. DU145 cells were serum-starved overnight and treated with 1 μg/ml of ANG, RNase A, or RNASE4 for 15 minutes. Left panels, immunoblots; right panel, quantification. (D) Effect of AXL inhibitor R428 on RNASE4-induced cell proliferation. Serum-starved DU145 cells were incubated with 1 or 3 μM R428 for 3 hours and then stimulated by 1 μg/ml of RNASE4 for 3 days. Cell numbers were determined by MTT assay. Data shown are means±SEM of a representative experiment (in triplicates) of 3 independent repeats. **P≤0.01 and ***P≤0.001, by unpaired two-tailed Student's t test. (E) Effect of AXL inhibitor R428 on RNASE4-induced AKT and P6 phosphorylation. Serum-starved DU145 cells were incubated with 1 or 3 μM R428 for 3 hours and then stimulated by 1 μg/ml of RNASE4 for 5 minutes. Cell lysates were analyzed for AKT and P6 phosphorylation by immunoblotting. Top panels, immunoblots; bottom panels, quantification of phospho-AKT and phospho-S6 by Image J analyses normalized to total AKT and P6, respectively. (F) Schematic presentation of proposed involvement of AXL in RNASE4-stimulated cellular events.

B1: RNASE4: recombinant human RNASE4 protein from pET11 expression in E. coli, purified by reversed-phase HPLC; added exogenously (protein, UniProt P34096 29-147, looked up)
Ribonuclease 4: QDGMYQRFLRQHVHPEETGGSDRYCNLMMQRRKMTLYHCKRFNTFIHEDIWNIRSICSTTNIQCKNGKMNCHEGVVKVTDCRDTGSSRAPNCRYRAIASTRRVVIACEGNPQVPVHFDG
- rescue of the effect of RNASE4 knockdown on colony formation (PC-3 cells): able to rescue
- activation (phosphorylation) of AKT and S6 [1]: rapidly and continuously activated
